Laboratory results: patent publication US20130309248A1

Key:
[1] = biological target: full-length recombinant H1 HA (A/New Caledonia/20/1999) on PER.C6 cells (influenza A virus (H1N1)); assay: FACS, IgG 5 µg/ml, HA-expressing PER.C6 cells; untransfected MFI 21
[2] = biological target: full-length recombinant H3 HA (A/Wisconsin/67/2005) on PER.C6 cells (influenza A virus (H3N2)); assay: as above
[3] = biological target: full-length recombinant H7 HA (A/Netherlands/219/2003) on PER.C6 cells (influenza A virus (H7N7)); assay: as above
[4] = biological target: HA of virus A/Brisbane/59/2007 (H1N1) (influenza A virus (H1N1)); assay: cell-based or functional assay
[5] = biological target: HA of virus A/Mallard/Netherlands/12/2000 (H7N3) (influenza A virus (H7N3)); assay: cell-based or functional assay
[6] = biological target: HA of virus A/Solomon Islands/IVR-145 (H1N1) (influenza A virus (H1N1)); assay: cell-based or functional assay
[7] = biological target: HA of virus A/Johannesburg/33/94 (H3N2) (influenza A virus (H3N2)); assay: cell-based or functional assay
[8] = biological target: HA of virus A/Panama/2000/1999 (H3N2) (influenza A virus (H3N2)); assay: cell-based or functional assay
[9] = biological target: HA of virus A/New Caledonia/20/1999 (H1N1) (influenza A virus (H1N1)); assay: cell-based or functional assay
[10] = biological target: HA of virus A/Hiroshima/52/2005 (H3N2) (influenza A virus (H3N2)); assay: cell-based or functional assay
[11] = biological target: HA of virus A/Wisconsin/67/2005 (H3N2) (influenza A virus (H3N2)); assay: cell-based or functional assay
[12] = biological target: HA of virus A/Chick/Germany/N/49 (H10) (influenza A virus (H10)); assay: cell-based or functional assay

B1: CR8055 (antibody, V domains shown)
VH: EIVLTQSPDFQSVAPKEKVTITCRASRSIGSDLHWFQQRPDQSPKLLIKFASQSMSGVPSRFSGSGSGRDFTLTISSLEAEDAATYYCHQSSSLPLT
VL: EVQLVESGGGLVQPGGSLRLSCAASGFTDSVIFMSWVRQAPGKGLECVSIIYIDDSTYYADSVKGRFTISRHNSMGTVFLEMNSLRPDDTAVYYCATESGDFGDQTGPYHYYAMDV
MFI [1]: 31 MFI
MFI [2]: 433 MFI
MFI [3]: 26 MFI
Neutralization titer SK50 [4]: > 40 µg/mL
Neutralization titer SK50 [5]: > 40 µg/mL
Neutralization titer SK50 [6]: > 40 µg/mL
Neutralization titer SK50 [7]: 3.38 µg/mL
Neutralization titer SK50 [8]: > 40 µg/mL
Neutralization titer SK50 [9]: > 40 µg/mL
Neutralization titer SK50 [10]: 1.15 µg/mL
Neutralization titer SK50 [11]: 1.07 µg/mL
Neutralization titer SK50 [12]: > 40 µg/mL
